Test results published in publication PMC4349727, “Redox-dependent chaperone/peroxidase function of 2-Cys-Prx from the cyanobacterium Anabaena PCC7120: role in oxidative stress tolerance” (BMC Plant Biology, 2015).

What was measured:
[1] = target: T1, Alr4641 (2-Cys-Prx) (Nostoc sp. PCC 7120 = FACHB-418, UniProt A0ACD7RYC4); experiment: NTRC-dependent peroxidase assay, NADPH oxidation at […] nm; assay type: biochemical; settings: 100 uM peroxide; NTRC of Anabaena PCC7120 as reductant with NADPH
T1 construct: full length, 203 residues, 23 kD, N-terminal His-tag (pET16b), expressed in E. coli BL21pLysS; decamer/dodecamer
T1 sequence (A0ACD7RYC4 1-203): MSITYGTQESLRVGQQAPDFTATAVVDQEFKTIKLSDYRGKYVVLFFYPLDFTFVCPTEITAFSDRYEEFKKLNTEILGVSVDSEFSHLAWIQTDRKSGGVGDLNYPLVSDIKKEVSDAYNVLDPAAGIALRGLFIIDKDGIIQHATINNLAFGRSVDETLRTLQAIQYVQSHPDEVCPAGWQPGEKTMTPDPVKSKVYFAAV

[2] = target: Alr4641 (typical 2-Cys-Prx of Anabaena PCC7120), His-tagged, wild type (Anabaena PCC7120); experiment: SDS-PAGE under reducing or non-reducing conditions; 12% SDS-PAGE of purified proteins with or without DTT (10 mM); shows the inter-subunit disulfide dimer
[3] = target: Alr4641 over-expressed in Anabaena PCC7120 (strain An4641+) (Anabaena PCC7120); experiment: non-reducing SDS-PAGE with Western blot; cell free extracts of Anabaena (wild type after MV, H2O2, t-Bx or γ-radiation and recovery; An4641+; AnC56S+) on non-reducing SDS-PAGE, probed with Alr4641 antiserum; shows the disulfide dimer
[4] = target: Alr4641, endogenous in wild-type Anabaena PCC7120 (Anabaena PCC7120 (endogenous)); experiment: as above
[5] = target: Alr4641 (typical 2-Cys-Prx of Anabaena PCC7120), His-tagged, wild type (Anabaena PCC7120); experiment: SPR; Autolab Esprit; about 250 response units of Alr4641 immobilised on bare gold chip by EDC-NHS; NTRC injected at 4.33, 8.66, 10.39 and 12.99 μM, 33.3 μL/min, 300 s; 20°C; 10 mM HEPES, 100 mM NaCl, pH 7.5; equilibrium analysis

## CC(C)(OO)c1ccccc1 [Cux, cumeme hydroperoxide]
[1]
  NTRC-dependent peroxidase assay, NADPH oxidation at 340 nm: best activity was observed with H2O2 followed by t-butyl hydroperoxide and cumeme hydroperoxide

## CC(C)(C)OO [t-Bx, t-butyl hydroperoxide]
[1]
  NTRC-dependent peroxidase assay, NADPH oxidation at 340 nm: best activity was observed with H2O2 followed by t-butyl hydroperoxide and cumeme hydroperoxide

## Alr4641 (typical 2-Cys-Prx of Anabaena PCC7120), His-tagged, wild type (enzyme)
[2]
  stoichiometry N: 2

## Alr4641 over-expressed in Anabaena PCC7120 (strain An4641+) (enzyme)
[3]
  stoichiometry N: 2

## Alr4641, endogenous in wild-type Anabaena PCC7120 (enzyme)
[4]
  stoichiometry N: 2

## NADPH-dependent thioredoxin reductase (NTRC) from Anabaena PCC7120, His-tagged (enzyme)
[5]
  Kd: 1040 nM
